Drawing on patent US20230323466A1, “DETERMINING CANCER RESPONSIVENESS TO TREATMENT” (Queensland University of Technology, priority 2020, published 2023), this text covers CDCA3 protein for 1 molecule.

The test system of this test is EGFR. As to the kind of experiment: EGF stimulation of EGFR wildtype cells, western blot of CDCA3 (FIG. 11). The note with it: EGFR wildtype cells stimulated with EGF. In kind it is cell-based. The source says: FIG. 11. CDCA3 levels are elevated in EGFR^mutNSCLC cell lines. Stimulation of receptor tyrosine kinase (RTK) signalling in EGFR wildtype cells induces the upregulation of CDCA3 protein.
The current Example examined whether elevated CDCA3 was as a result of activating mutations in epidermal growth factor receptor (EGFR) that solely occur in cases of NSCLC adenocarcinoma. In in vitro models of disease, CDCA3 protein levels were examined by western blot analysis and it was identified that CDCA3 protein is markedly elevated in EGFR mutant NSCLC cell lines versus EGFR wildtype cell lines (FIG. 11). The present inventors also identified that stimulation of EGFR wildtype cells with EGF, an EGFR ligand, induced PI3K-Akt downstream signal transduction and the upregulation of CDCA3 protein. PI3K-Akt was constitutively activated in EGFR mutant NSCLC cell lines.
In general terms: A western blot detects proteins with antibodies after separation by electrophoresis.

B1: EGF: an EGFR ligand (protein, UniProt P01133 23-1207, looked up)
Pro-epidermal growth factor: PQHWSCPEGTLAGNGNSTCVGPAPFLIFSHGNSIFRIDTEGTNYEQLVVDAGVSVIMDFHYNEKRIYWVDLERQLLQRVFLNGSRQERVCNIEKNVSGMAINWINEEVIWSNQQEGIITVTDMKGNNSHILLSALKYPANVAVDPVERFIFWSSEVAGSLYRADLDGVGVKALLETSEKITAVSLDVLDKRLFWIQYNREGSNSLICSCDYDGGSVHISKHPTQHNLFAMSLFGDRIFYSTWKMKTIWIANKHTGKDMVRINLHSSFVPLGELKVVHPLAQPKAEDDTWEPEQKLCKLRKGNCSSTVCGQDLQSHLCMCAEGYALSRDRKYCEDVNECAFWNHGCTLGCKNTPGSYYCTCPVGFVLLPDGKRCHQLVSCPRNVSECSHDCVLTSEGPLCFCPEGSVLERDGKTCSGCSSPDNGGCSQLCVPLSPVSWECDCFPGYDLQLDEKSCAASGPQPFLLFANSQDIRHMHFDGTDYGTLLSQQMGMVYALDHDPVENKIYFAHTALKWIERANMDGSQRERLIEEGVDVPEGLAVDWIGRRFYWTDRGKSLIGRSDLNGKRSKIITKENISQPRGIAVHPMAKRLFWTDTGINPRIESSSLQGLGRLVIASSDLIWPSGITIDFLTDKLYWCDAKQSVIEMANLDGSKRRRLTQNDVGHPFAVAVFEDYVWFSDWAMPSVMRVNKRTGKDRVRLQGSMLKPSSLVVVHPLAKPGADPCLYQNGGCEHICKKRLGTAWCSCREGFMKASDGKTCLALDGHQLLAGGEVDLKNQVTPLDILSKTRVSEDNITESQHMLVAEIMVSDQDDCAPVGCSMYARCISEGEDATCQCLKGFAGDGKLCSDIDECEMGVPVCPPASSKCINTEGGYVCRCSEGYQGDGIHCLDIDECQLGEHSCGENASCTNTEGGYTCMCAGRLSEPGLICPDSTPPPHLREDDHHYSVRNSDSECPLSHDGYCLHDGVCMYIEALDKYACNCVVGYIGERCQYRDLKWWELRHAGHGQQQKVIVVAVCVVVLVMLLLLSLWGAHYYRTQKLLSKNPKNPYEESSRDVRSRRPADTEDGMSSCPQPWFVVIKEHQDLKNGGQPVAGEDGQAADGSMQPTSWRQEPQLCGMGTEQGCWIPVSSDKGSCPQVMERSFHMPSYGTQTLEGGVEKPHSLLSANPLWQQRALDPPHQMELTQ
modifications: Pro-epidermal growth factor
notes: an EGFR ligand
Take B1: the CDCA3 protein result is “upregulation”.
